# Measured values as given in US20110124010A1.
# Key:
# [1] = target: Myelin basic protein (MBP) (human) (UniProt P02686); test: flow cytometry, intracellular staining of CD14+ macrophages from CSF; isotype control background
# [2] = target: Myelin basic protein (MBP) (human) (UniProt P02686); test: flow cytometry, intracellular staining of CD14+ macrophages from peripheral blood; isotype control background
# UniProt P02686, sequence (P02686 whole entry): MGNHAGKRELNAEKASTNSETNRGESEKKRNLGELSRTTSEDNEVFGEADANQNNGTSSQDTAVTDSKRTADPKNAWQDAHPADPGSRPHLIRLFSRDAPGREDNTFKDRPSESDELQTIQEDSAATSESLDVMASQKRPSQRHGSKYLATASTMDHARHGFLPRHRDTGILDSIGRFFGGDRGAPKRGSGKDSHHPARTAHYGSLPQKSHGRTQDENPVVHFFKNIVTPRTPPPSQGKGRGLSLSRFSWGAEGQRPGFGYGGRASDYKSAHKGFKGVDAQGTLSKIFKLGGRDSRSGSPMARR
substance,measurement,setting,value
Non-specific isotype specific antibody (Rabbit IgG) from Epitomics,Geometric Mean FI,[1],292
same,Mean FI,[1],328
same,Geometric Mean FI,[2],766
same,Mean FI,[2],783
